# In CN108586611A (UNIV JINAN; ZHUHAI TAINUO MAIBO BIOTECHNOLOGY CO LTD; …, dated 2018):
# B1: TRN1014抗体 (重组全人源抗破伤风毒素单克隆抗体) (antibody, V domains shown)
# VH: EVQLVESGGDLVPPGGSLRLSCVASGFTFRNYWMNWVRQAPGQGLQWVASIKDDGTESQYLESVKGRFTISRDNAKNSLSLQMDSLRAEDTALYFCTRVGGFYFGSERYYKGGDDVWGQGTTVTVSS
# VL: DIVLTQSPSSLSASVGDRVTFTCRASQTISNYLHWYQQKPGQAPELLIFAASNRQGGVPSRFRGSGSGTDFTLTISPLEADDFATYYCQQSYSSPRTFGQGTKLEIK
# Biological target: 破伤风毒素 (tetanus toxin) (Clostridium tetani, UniProt P04958 2-1315)
# Sequence (P04958 2-457 limits assumed, chain 1 of 2): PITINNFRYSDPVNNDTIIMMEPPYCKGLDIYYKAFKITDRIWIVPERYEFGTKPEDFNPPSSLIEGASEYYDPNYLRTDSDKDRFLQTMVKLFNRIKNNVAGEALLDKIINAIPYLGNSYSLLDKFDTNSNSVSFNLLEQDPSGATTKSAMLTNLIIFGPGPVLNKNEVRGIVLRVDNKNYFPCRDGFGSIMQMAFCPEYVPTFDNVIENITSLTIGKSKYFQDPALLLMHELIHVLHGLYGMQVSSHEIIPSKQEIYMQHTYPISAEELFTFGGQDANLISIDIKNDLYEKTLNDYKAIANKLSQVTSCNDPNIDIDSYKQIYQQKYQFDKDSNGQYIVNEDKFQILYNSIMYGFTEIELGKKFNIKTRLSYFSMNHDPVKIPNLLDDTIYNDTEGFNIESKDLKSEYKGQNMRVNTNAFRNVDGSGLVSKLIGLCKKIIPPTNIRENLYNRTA
# Sequence (P04958 458-1315 limits assumed, chain 2 of 2): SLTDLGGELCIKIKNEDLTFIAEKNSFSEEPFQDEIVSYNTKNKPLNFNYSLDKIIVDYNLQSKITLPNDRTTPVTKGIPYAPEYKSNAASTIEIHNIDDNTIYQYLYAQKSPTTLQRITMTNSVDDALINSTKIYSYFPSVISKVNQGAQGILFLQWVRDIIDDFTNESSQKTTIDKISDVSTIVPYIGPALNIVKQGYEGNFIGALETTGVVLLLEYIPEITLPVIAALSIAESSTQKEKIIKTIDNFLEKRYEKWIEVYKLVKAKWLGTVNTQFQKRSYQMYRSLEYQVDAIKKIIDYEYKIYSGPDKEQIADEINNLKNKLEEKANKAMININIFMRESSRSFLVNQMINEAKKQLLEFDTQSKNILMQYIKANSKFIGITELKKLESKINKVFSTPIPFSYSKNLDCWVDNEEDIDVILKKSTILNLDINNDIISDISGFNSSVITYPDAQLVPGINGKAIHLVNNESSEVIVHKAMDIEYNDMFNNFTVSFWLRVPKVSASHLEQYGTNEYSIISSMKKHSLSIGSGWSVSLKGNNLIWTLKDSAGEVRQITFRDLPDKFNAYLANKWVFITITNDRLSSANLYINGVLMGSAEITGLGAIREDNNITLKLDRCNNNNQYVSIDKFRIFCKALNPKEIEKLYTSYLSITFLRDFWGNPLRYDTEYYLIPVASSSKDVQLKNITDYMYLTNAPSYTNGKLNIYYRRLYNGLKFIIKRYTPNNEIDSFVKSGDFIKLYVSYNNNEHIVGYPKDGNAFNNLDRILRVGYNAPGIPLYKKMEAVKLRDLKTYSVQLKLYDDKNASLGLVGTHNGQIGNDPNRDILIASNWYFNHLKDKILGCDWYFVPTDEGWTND
binder,measurement,value
B1,Kd,1.1 nM
same,koff,6.07e-05 s⁻¹
same,kon,55100 M⁻¹ s⁻¹
